In paper PMC4947014:
Residue numbers refer to the chain shown, from its start. Names may count otherwise. One block for each binder: values may come before it.

Key:
[1] = molecular target: Im7 L18AL19AL37AH40W (E. coli)
[2] = molecular target: Im7 L18AL19AL37AH40W (E. coli); test: stopped-flow fluorescence
[3] = molecular target: Im7, wild type (E. coli); test: stopped-flow fluorescence

stoichiometry N [1]: 1
kon [2]: 1.2e+08 M⁻¹ s⁻¹
kobs of release of native Im7 (double mixing, chase after 6 ms) [3]: 141 s⁻¹
koff [3]: 131 s⁻¹
B1: Spy, wild type (natural protein)
chain: ADTTTAAPADAKPMMHHKGKFGPHQDMMFKDLNLTDAQKQQIREIMKGQRDQMKRPPLEERRAMHDIIASDTFDKVKAEAQIAKMEEQRKANMLAHMETQNKIYNILTPEQKKQFNANFEKRLTERPAAKGKMPATAE

fold increase in affinity (Kd) over SpyWT [2]: 150 fold
fold lower release rate constant (koff) than SpyWT [2]: 130 fold
B2: Spy Q100L (natural protein)
chain: B1 chain with Q100L

fold increase in affinity (Kd) over SpyWT [2]: 7 fold
fold lower release rate constant (koff) than SpyWT [2]: 5 fold
B3: Spy H96L (natural protein)
chain: B1 chain with H96L
